Data published in the supplement of paper PMC10567573.

B1: PBXIP1 (parent)
chain: LQQLRARLQGLEADCVRGPDGVCL

Variants of: B1
Test: protein stability index of a GFP-peptide fusion (GPS, HEK-293T) (PSI 1-6); higher = more stable
Details: c terminus: a fixed tail appended
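Note: lentivirally expressed fusions sorted by FACS into six bins by GFP to DsRed ratio, PSI derived from sequencing read proportions per bin multiplied by bin number.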

Row | Variant | protein stability index
1 | LQQLRARLQGLEADCVRGDDGVCL [P19D] | 2.23
2 | LQQLRARLQGLEADCVRGIDGVCL [P19I] | 2.58
3 | LQQLRARLQGLEADCVRGFDGVCL [P19F] | 1.92
4 | LQQLRARLQGLEADCVRGKDGVCL [P19K] | 1.98
5 | LQQLRARLQGLEADCVRGNDGVCL [P19N] | 1
6 | LQQLRARLQGLEADCVRGWDGVCL [P19W] | 1.5
7 | LQQLRARLQGLEADCVRGSDGVCL [P19S] | 1
8 | LQQLRARLQGLEADCVRGYDGVCL [P19Y] | 2.13
9 | LQQLRARLQGLEADCVRGHDGVCL [P19H] | 2.62
10 | LQQLRARLQGLEADCVRGTDGVCL [P19T] | 2.12
11 | LQQLRARLQGLEADCVRGPDIVCL [G21I] | 1.75
12 | LQQLRARLQGLEADCVRGPDYVCL [G21Y] | 1.28
13 | LQQLRARLQGLEADCVRGPDKVCL [G21K] | 3.18
14 | LQQLRARLQGLEADCVRGPDNVCL [G21N] | 2.69
15 | LQQLRARLQGLEADCVRGPDQVCL [G21Q] | 3.34
16 | LQQLRARLQGLEADCVRGPDSVCL [G21S] | 3.94
17 | LQQLRARLQGLEADCVRGPDRVCL [G21R] | 2.56
18 | LQQLRARLQGLEADCVRGPDTVCL [G21T] | 1.99
19 | LQQLRARLQGLEADCVRGPDAVCL [G21A] | 1.28
20 | LQQLRARLQGLEADCVRGPDWVCL [G21W] | 2.07
21 | LQQLRARLQGLEADCWRGPDGVCL [V16W] | 1.46
22 | LQQLRARLQGLEADCCRGPDGVCL [V16C] | 1.78
23 | LQQLRARLQGLEADCFRGPDGVCL [V16F] | 2.28
24 | LQQLRARLQGLEADCPRGPDGVCL [V16P] | 1.64

Row | Variant | protein stability index
25 | LQQLRARLQGLEADCYRGPDGVCL [V16Y] | 2.57
26 | LQQLRARLQGLEADCDRGPDGVCL [V16D] | 2.87
27 | LQQLRARLQGLEADCQRGPDGVCL [V16Q] | 2.95
28 | LQQLRARLQGLEADCMRGPDGVCL [V16M] | 1.81
29 | LQQLRARLQGLEADCERGPDGVCL [V16E] | 3.21
30 | LQQLRARLQGLEADCLRGPDGVCL [V16L] | 1.59
31 | LQQLRARLQGLEADCNRGPDGVCL [V16N] | 2.62
32 | LQQLRARLQGLEADCHRGPDGVCL [V16H] | 1.74
33 | LQQLRARLQGLEADCIRGPDGVCL [V16I] | 2.38
34 | LQQLRARLQGLEADCTRGPDGVCL [V16T] | 2.51
35 | LQQLRARLQGLEADCSRGPDGVCL [V16S] | 1.84
36 | LQQLRARLQGLEADCVRGPDGVCV [L24V] | 1.79
37 | LQQLRARLQGLEADCVRGPDGVCI [L24I] | 1.94
38 | LQQLRARLQGLEADCVRGPDGVCN [L24N] | 3.04
39 | LQQLRARLQGLEADCVRGPDGVCH [L24H] | 2.97
40 | LQQLRARLQGLEADCVRGPDGVCQ [L24Q] | 3.1
41 | LQQLRARLQGLEADCVRGPDGVCS [L24S] | 2.89
42 | LQQLRARLQGLEADCVRGPDGVCR [L24R] | 2.65
43 | LQQLRARLQGLEADCVRGPDGVCY [L24Y] | 2.34
44 | LQQLRARLQGLEADCVRGPDGVCT [L24T] | 1.74
45 | LQQLRARLQGLEADCVRGPDGVCP [L24P] | 2.79
46 | LQQLRARLQGLEADCVRGPDGVCW [L24W] | 2.15
47 | LQQLRARLQGLEADCVRGPDGVCD [L24D] | 3.08
48 | LQQLRARLQGLEADCVRGPDGVPL [C23P] | 2.52

Row | Variant | protein stability index
49 | LQQLRARLQGLEADCVRGPDGVHL [C23H] | 2.66
50 | LQQLRARLQGLEADCVRGPDGVLL [C23L] | 2.48
51 | LQQLRARLQGLEADCVRGPDGVYL [C23Y] | 2.29
52 | LQQLRARLQGLEADCVRGPDGVIL [C23I] | 2.78
53 | LQQLRARLQGLEADCVRGPDGVSL [C23S] | 1.96
54 | LQQLRARLQGLEADCVRGPDGVVL [C23V] | 1.74
55 | LQQLRARLQGLEADCVRGPDGVML [C23M] | 2.23
56 | LQQLRARLQGLEADCVRGPDGVWL [C23W] | 3.01
57 | LQQLRARLQGLEADCVRGPDGVQL [C23Q] | 2.39
58 | LQQLRARLQGLEADCVRGPDGVAL [C23A] | 2.2
59 | LQQLRARLQGLEADCVRGPDGVKL [C23K] | 2.03
60 | LQQLRARLQGLEADCVRGPDGVNL [C23N] | 1.65
61 | LQQLRARLQGLEADCVRGPDGVEL [C23E] | 2.98
62 | LQQLRARLQGLEADCVTGPDGVCL [R17T] | 3.19
63 | LQQLRARLQGLEADCVMGPDGVCL [R17M] | 1.79
64 | LQQLRARLQGLEADCVVGPDGVCL [R17V] | 2.2
65 | LQQLRARLQGLEADCVIGPDGVCL [R17I] | 1.82
66 | LQQLRARLQGLEADCVWGPDGVCL [R17W] | 1.81
67 | LQQLRARLQGLEADCVNGPDGVCL [R17N] | 3.03
68 | LQQLRARLQGLEADCVEGPDGVCL [R17E] | 1.86
69 | LQQLRARLQGLEADCVKGPDGVCL [R17K] | 1.86
70 | LQQLRARLQGLEADCVQGPDGVCL [R17Q] | 3.04
71 | LQQLRARLQGLEADCVHGPDGVCL [R17H] | 2.93
72 | LQQLRARLQGLEADCVLGPDGVCL [R17L] | 1.98

Row | Variant | protein stability index
73 | LQQLRARLQGLEADCVCGPDGVCL [R17C] | 2.04
74 | LQQLRARLQGLEADCVFGPDGVCL [R17F] | 2.12
75 | LQQLRARLQGLEADCVYGPDGVCL [R17Y] | 2.47
76 | LQQLRARLQGLEADCVGGPDGVCL [R17G] | 2.55
77 | LQQLRARLQGLEADCVPGPDGVCL [R17P] | 3.52
78 | LQQLRARLQGLEADCVRGPDGFCL [V22F] | 1.34
79 | LQQLRARLQGLEADCVRGPDGQCL [V22Q] | 2.83
80 | LQQLRARLQGLEADCVRGPDGRCL [V22R] | 3.41
81 | LQQLRARLQGLEADCVRGPDGKCL [V22K] | 2.39
82 | LQQLRARLQGLEADCVRGPDGYCL [V22Y] | 1.52
83 | LQQLRARLQGLEADCVRGPDGMCL [V22M] | 2.13
84 | LQQLRARLQGLEADCVRGPDGTCL [V22T] | 2.57
85 | LQQLRARLQGLEADCVRGPDGSCL [V22S] | 3.23
86 | LQQLRARLQGLEADCVRGPDGLCL [V22L] | 1.46
87 | LQQLRARLQGLEADCVRGPDGGCL [V22G] | 1.78
88 | LQQLRARLQGLEADCVRGPDGICL [V22I] | 1.96
89 | LQQLRARLQGLEADCVRGPDGCCL [V22C] | 1.84
90 | LQQLRARLQGLEADCVRGPDGACL [V22A] | 2.03
91 | LQQLRARLQGLEADWVRGPDGVCL [C15W] | 2
92 | LQQLRARLQGLEADTVRGPDGVCL [C15T] | 2.18
93 | LQQLRARLQGLEADSVRGPDGVCL [C15S] | 2.16
94 | LQQLRARLQGLEADYVRGPDGVCL [C15Y] | 2.13
